{"source": "patent US20190382486A1", "about": "(Pfizer, published 2019)", "key": {"[1]": {"biological_target": "T1, human CD3 epsilon subunit (CD3e), as cell surface CD3 on Jurkat cells and on naive human T cells (human, UniProt P07766 23-207)", "T1 construct": "On the cells CD3 epsilon is part of the whole CD3/TCR complex", "experiment": "FACS on Jurkat cells expressing CD3"}, "[2]": {"biological_target": "T1, human CD3 epsilon subunit (CD3e), as …", "experiment": "cell-based or functional assay"}, "[3]": {"biological_target": "T2, CD3ed (CD3 epsilon/delta fusion protein) (human)", "T2 construct": "Expressed in HEK293 and purified on His60 resin and by SEC; also called soluble human CD3ed antigen; hCD3ed", "T2 chain": "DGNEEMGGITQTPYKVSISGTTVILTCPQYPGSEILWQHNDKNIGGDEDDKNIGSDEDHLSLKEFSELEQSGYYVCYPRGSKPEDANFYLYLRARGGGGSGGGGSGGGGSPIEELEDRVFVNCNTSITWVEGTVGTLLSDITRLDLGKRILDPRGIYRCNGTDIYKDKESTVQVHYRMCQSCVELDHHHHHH", "experiment": "SPR, recombinant human CD3"}, "[4]": {"biological_target": "T1, human CD3 epsilon subunit (CD3e), as …", "experiment": "flow cytometry, cell surface binding to human CD3 on naive human T cells", "from_the_text": "Purified CD3 bispecific antibodies were titrated for cell surface binding to human CD3 on naïve human T cells purified from fresh human peripheral blood mononuclear cells (PBMCs), using the standard flow cytometry methods known in the art using BD LSRII Fortessa analyzer."}, "[5]": {"biological_target": "T1, human CD3 epsilon subunit (CD3e), as …", "experiment": "flow cytometry titration on naive human T cells (PE-A Geo Mean against Ab in nM); Kd printed beside the legend"}}, "data": [{"binder": "2B5-0006 (2B5v6) (antibody, V domains shown, also called h2B5v6; parental 2B5v6) VH: EVQLVESGGGLVQPGGSLRLSCAASGFTFSDYYMTWVRQAPGKGLEWVAFIRNQARGYTSDHNPSVKGRFTISRDNAKNSLYLQMNSLRAEDTAVYYCARDRPSYYVLDYWGQGTTVTVSS VL: DIQMTQSPSSLSASVGDRVTITCTSSQSLFNVRSQKNYLAWYQQKPGKAPKLLIYWASTRESGVPSRFSGSGSGTDFTLTISSLQPEDFATYYCKQSYDLFTFGGGTKVEIK", "values": [{"measurement": "EC50", "setting": "[1]", "result": 9.8, "unit": "nM"}]}, {"binder": "GUCY2C-1608 (GUCY2c-2B5v6) bispecific antibody (bispecific antibody, Bispecific diabody-Fc) chain 1: DIQLTQSPSSLSASVGDRVTITCRASESVDYYGSSLLQWYQQKPGKAPKLLIYAASKLASGVPSRFSGSGSGTDFTLTISSLQPEDFATYYCQQTRKAYTFGQGTKLEIKGGGSGGGGEVQLVESGGGLVQPGGSLRLSCAASGFTFSDYYMTWVRQAPGKGLEWVAFIRNQARGYTSDHNPSVKGRFTISRDNAKNSLYLQMNSLRAEDTAVYYCARDRPSYYVLDYWGQGTTVTVSSGCPPCPAPEAAGAPSVFLFPPKPKDTLMISRTPEVTCVVVDVSHEDPEVKFNWYVDGVEVHNAKTKPREEQYNSTYRVVSVLTVLHQDWLNGKEYKCKVSNKALPAPIEKTISKAKGQPREPQVCTLPPSREEMTKNQVSLWCLVKGFYPSDIAVEWESNGQPENNYKTTPPVLDSDGSFFLYSKLTVDKSRWQQGNVFSCSVMHEALHNHYTQKSLSLSPG chain 2: DIQMTQSPSSLSASVGDRVTITCTSSQSLFNVRSQKNYLAWYQQKPGKAPKLLIYWASTRESGVPSRFSGSGSGTDFTLTISSLQPEDFATYYCKQSYDLFTFGGGTKVEIKGGGGSGGGGEVQLVESGGGLVQPGGSLRLSCAASGFTFSSYWMHWVRQAPGKGLEWIGEIKPSNELTNVHEKFKDRFTISVDKAKNSAYLQMNSLRAEDTAVYYCTRTITTTEGYWFFDVWGQGTLVTVSSGCPPCPAPEAAGAPSVFLFPPKPKDTLMISRTPEVTCVVVDVSHEDPEVKFNWYVDGVEVHNAKTKPREEQYNSTYRVVSVLTVLHQDWLNGKEYKCKVSNKALPAPIEKTISKAKGQPREPQVYTLPPCREEMTKNQVSLSCAVKGFYPSDIAVEWESNGQPENNYKTTPPVLDSDGSFFLVSKLTVDKSRWQQGNVFSCSVMHEALHNHYTQKSLSLSPG", "values": [{"measurement": "In vitro Cytotoxicity", "setting": "[2]", "result": 0.772, "unit": "nM"}, {"measurement": "Kd", "setting": "[3]", "result": 128, "unit": "nM"}, {"measurement": "EC50", "setting": "[4]", "result": 35.4, "unit": "nM"}]}, {"binder": "GUCY2c-2B5 bispecific antibody (bispecific antibody, human IgG1, Bispecific diabody-Fc (knob-in-hole, effector null human IgG1 Fc); also called GUCY2c-0250) chain 1: DIQLTQSPSSLSASVGDRVTITCRASESVDYYGTSLMQWYQQKPGKPPKLLIYAASNVESGVPSRFSGSGSGTDFTLTISSLQPEDFATYYCQQTRKVYTFGQGTKLEIKGGGSGGGGEVQLVESGGGLVQPGGSLRLSCAASGFTFSDYYMTWVRQAPGKGLEWVAFIRNRARGYTSDHNPSVKGRFTISRDNAKNSLYLQMNSLRAEDTAVYYCARDRPSYYVLDYWGQGTTVTVSSGCPPCPAPEAAGAPSVFLFPPKPKDTLMISRTPEVTCVVVDVSHEDPEVKFNWYVDGVEVHNAKTKPREEQYNSTYRVVSVLTVLHQDWLNGKEYKCKVSNKALPAPIEKTISKAKGQPREPQVCTLPPSREEMTKNQVSLWCLVKGFYPSDIAVEWESNGQPENNYKTTPPVLDSDGSFFLYSKLTVDKSRWQQGNVFSCSVMHEALHNHYTQKSLSLSPG chain 2: DIQMTQSPSSLSASVGDRVTITCTSSQSLFNVRSRKNYLAWYQQKPGKAPKLLIYWASTRESGVPSRFSGSGSGTDFTLTISSLQPEDFATYYCKQSYDLFTFGGGTKVEIKGGGSGGGGEVQLVESGGGLVQPGGSLRLSCAASGYTFTSYWMHWVRQAPGKGLEWIGEIKPSNGLTNYIEKFKNRFTISVDKAKNSAYLQMNSLRAEDTAVYYCTRTITTTEGYWFFDVWGQGTLVTVSSGCPPCPAPEAAGAPSVFLFPPKPKDTLMISRTPEVTCVVVDVSHEDPEVKFNWYVDGVEVHNAKTKPREEQYNSTYRVVSVLTVLHQDWLNGKEYKCKVSNKALPAPIEKTISKAKGQPREPQVYTLPPCREEMTKNQVSLSCAVKGFYPSDIAVEWESNGQPENNYKTTPPVLDSDGSFFLVSKLTVDKSRWQQGNVFSCSVMHEALHNHYTQKSLSLSPG", "values": [{"measurement": "Kd", "setting": "[5]", "result": 13.2, "unit": "nM"}]}]}
